Laboratory results from patent US20240261333A1, “NOVEL TARGETS FOR ENHANCING ANTI-TUMOR IMMUNITY” (THE BROAD INSTITUTE, INC., priority 2021, published 2024).

T1: B3GNT2 (Homo sapiens, UniProt Q9NY97)
T1 construct: The respective ORFs of candidate genes [CD274 (NM_014143), MCL1 (NM_021960), JUNB (NM_002229), and B3GNT2 (NM_006577)] were synthesized; expressed in transfected cells; host or cells: A375 melanoma cells (lentiviral ORF overexpression)
T1 sequence (Q9NY97 1-397): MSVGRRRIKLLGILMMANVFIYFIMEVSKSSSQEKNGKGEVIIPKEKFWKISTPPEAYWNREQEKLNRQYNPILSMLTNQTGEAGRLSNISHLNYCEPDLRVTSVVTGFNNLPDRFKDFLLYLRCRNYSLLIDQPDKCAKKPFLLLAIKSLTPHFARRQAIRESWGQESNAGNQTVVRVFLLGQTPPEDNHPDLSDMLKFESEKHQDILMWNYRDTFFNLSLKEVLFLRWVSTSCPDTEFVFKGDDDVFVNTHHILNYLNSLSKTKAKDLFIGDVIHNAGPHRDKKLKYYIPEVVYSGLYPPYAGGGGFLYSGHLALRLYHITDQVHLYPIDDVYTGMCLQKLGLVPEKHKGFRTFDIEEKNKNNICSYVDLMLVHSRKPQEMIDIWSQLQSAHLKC

B1: HNRNPM (protein)
chain: AAGVEAAAEVAATEIKMEEESGAPGVPSGNGAPGPKGEGERPAQNEKRKEKNIKRGGNRFEPYANPTKRYRAFITNIPFDVKWQSLKDLVKEKVGEVTYVELLMDAEGKSRGCAVVEFKMEESMKKAAEVLNKHSLSGRPLKVKEDPDGEHARRAMQKVMATTGGMGMGPGGPGMITIPPSILNNPNIPNEIIHALQAGRLGSTVFVANLDYKVGWKKLKEVFSMAGVVVRADILEDKDGKSRGIGTVTFEQSIEAVQAISMFNGQLLFDRPMHVKMDERALPKGDFFPPERPQQLPHGLGGIGMGLGPGGQPIDANHLNKGIGMGNIGPAGMGMEGIGFGINKMGGMEGPFGGGMENMGRFGSGMNMGRINEILSNALKRGEIIAKQGGGGGGGSVPGIERMGPGIDRLGGAGMERMGAGLGHGMDRVGSEIERMGLVMDRMGSVERMGSGIERMGPLGLDHMASSIERMGQTMERIGSGVERMGAGMGFGLERMAAPIDRVGQTIERMGSGVERMGPAIERMGLSMERMVPAGMGAGLERMGPVMDRMATGLERMGANNLERMGLERMGANSLERMGLERMGANSLERMGPAMGPALGAGIERMGLAMGGGGGASFDRAIEMERGNFGGSFAGSFGGAGGHAPGVARKACQIFVRNLPFDFTWKMLKDKFNECGHVLYADIKMENGKSKGCGVVKFESPEVAERACRMMNGMKLSGREIDVRIDRNA
B2: S100A7 (protein)
chain: SNTQAERSIIGMIDMFHKYTRRDDKIEKPSLLTMMKENFPNFLSACDKKGTNYLADVFEKKDKNEDKKIDFSEFLSLLGDIATDYHKQSHGAAPCSGGSQ
B3: PPFIBP1 (protein)
chain: MMSDASDMLAAALEQMDGIIAGSKALEYSNGIFDCQSPTSPFMGSLRALHLVEDLRGLLEMMETDEKEGLRCQIPDSTAETLVEWLQSQMTNGHLPGNGDVYQERLARLENDKESLVLQVSVLTDQVEAQGEKIRDLEFCLEEHREKVNATEEMLQQELLSRTSLETQKLDLMAEISNLKLKLTAVEKDRLDYEDKFRDTEGLIQEINDLRLKVSEMDSERLQYEKKLKSTKDELASLKEQLEEKESEVKRLQEKLVCKMKGEGVEIVDRDIEVQKMKKAVESLMAANEEKDRKIEDLRQCLNRYKKMQDTVVLAQGKDGEYEELLNSSSISSLLDAQGFSDLEKSPSPTPVMGSPSCDPFNTSVPEEFHTTILQVSIPSLLPATVSMETSEKSKLTPKPETSFEENDGNIILGATVDTQLCDKLLTSSLQKSSSLGNLKKETSDGEKETIQKTSEDRAPAESRPFGTLPPRPPGQDTSMDDNPFGTRKVRSSFGRGFFKIKSNKRTASAPNLAETEKETAEHLDLAGASSRPKDSQRNSPFQIPPPSPDSKKKSRGIMKLFGKLRRSQSTTFNPDDMSEPEFKRGGTRATAGPRLGWSRDLGQSNSDLDMPFAKWTKEQVCNWLMEQGLGSYLNSGKHWIASGQTLLQASQQDLEKELGIKHSLHRKKLQLALQALGSEEETNHGKLDFNWVTRWLDDIGLPQYKTQFDEGRVDGRMLHYMTVDDLLSLKVVSVLHHLSIKRAIQVLRINNFEPNCLRRRPSDENTIAPSEVQKWTNHRVMEWLRSVDLAEYAPNLRGSGVHGGLMVLEPRFNVETMAQLLNIPPNKTLLRRHLATHFNLLIGAEAQHQKRDAMELPDYVLLTATAKVKPKKLAFSNFGNLRKKKQEDGEEYVCPMELGQASGSASKKGFKPGLDMRLYEEDDLDRLEQMEDSEGTVRQIGAFSEGINNLTHMLKEDDMFKDFAARSPSASITDEDSNV
B4: EMILIN1 (protein)
chain: ASYPPRGFSLYTGSSGALSPGGPQAQIAPRPASRHRNWCAYVVTRTVSCVLEDGVETYVKYQPCAWGQPQCPQSIMYRRFLRPRYRVAYKTVTDMEWRCCQGYGGDDCAESPAPALGPASSTPRPLARPARPNLSGSSAGSPLSGLGGEGPGESEKVQQLEEQVQSLTKELQGLRGVLQGLSGRLAEDVQRAVETAFNGRQQPADAAARPGVHETLNEIQHQLQLLDTRVSTHDQELGHLNNHHGGSSSSGGSRAPAPASAPPGPSEELLRQLEQRLQESCSVCLAGLDGFRRQQQEDRERLRAMEKLLASVEERQRHLAGLAVGRRPPQECCSPELGRRLAELERRLDVVAGSVTVLSGRRGTELGGAAGQGGHPPGYTSLASRLSRLEDRFNSTLGPSEEQEESWPGAPGGLSHWLPAARGRLEQLGGLLANVSGELGGRLDLLEEQVAGAMQACGQLCSGAPGEQDSQVSEILSALERRVLDSEGQLRLVGSGLHTVEAAGEARQATLEGLQEVVGRLQDRVDAQDETAAEFTLRLNLTAARLGQLEGLLQAHGDEGCGACGGVQEELGRLRDGVERCSCPLLPPRGPGAGPGVGGPSRGPLDGFSVFGGSSGSALQALQGELSEVILSFSSLNDSLNELQTTVEGQGADLADLGATKDRIISEINRLQQEATEHATESEERFRGLEEGQAQAGQCPSLEGRLGRLEGVCERLDTVAGGLQGLREGLSRHVAGLWAGLRETNTTSQMQAALLEKLVGGQAGLGRRLGALNSSLQLLEDRLHQLSLKDLTGPAGEAGPPGPPGLQGPPGPAGPPGSPGKDGQEGPIGPPGPQGEQGVEGAPAAPVPQVAFSAALSLPRSEPGTVPFDRVLLNDGGYYDPETGVFTAPLAGRYLLSAVLTGHRHEKVEAVLSRSNQGVARVDSGGYEPEGLENKPVAESQPSPGTLGVFSLILPLQAGDTVCVDLVMGQLAHSEEPLTIFSGALLYGDPELEHA
B5: YTHDF2 (protein)
chain: SASSLLEQRPKGQGNKVQNGSVHQKDGLNDDDFEPYLSPQARPNNAYTAMSDSYLPSYYSPSIGFSYSLGEAAWSTGGDTAMPYLTSYGQLSNGEPHFLPDAMFGQPGALGSTPFLGQHGFNFFPSGIDFSAWGNNSSQGQSTQSSGYSSNYAYAPSSLGGAMIDGQSAFANETLNKAPGMNTIDQGMAALKLGSTEVASNVPKVVGSAVGSGSITSNIVASNSLPPATIAPPKPASWADIASKPAKQQPKLKTKNGIAGSSLPPPPIKHNMDIGTWDNKGPVAKAPSQALVQNIGQPTQGSPQPVGQQANNSPPVAQASVGQQTQPLPPPPPQPAQLSVQQQAAQPTRWVAPRNRGSGFGHNGVDGNGVGQSQAGSGSTPSEPHPVLEKLRSINNYNPKDFDWNLKHGRVFIIKSYSEDDIHRSIKYNIWCSTEHGNKRLDAAYRSMNGKGPVYLLFSVNGSGHFCGVAEMKSAVDYNTCAGVWSQDKWKGRFDVRWIFVKDVPNSQLRHIRLENNENKPVTNSRDTQEVPLEKAKQVLKIIASYKHTTSIFDDFSHYEKRQEEEESVKKERQGRGK
B6: TELO2 (protein)
chain: MEPAPSEVRLAVREAIHALSSSEDGGHIFCTLESLKRYLGEMEPPALPREKEEFASAHFSPVLRCLASRLSPAWLELLPHGRLEELWASFFLEGPADQAFLVLMETIEGAAGPSFRLMKMARLLARFLREGRLAVLMEAQCRQQTQPGFILLRETLLGKVVALPDHLGNRLQQENLAEFFPQNYFRLLGEEVVRVLQAVVDSLQGGLDSSVSFVSQVLGKACVHGRQQEILGVLVPRLAALTQGSYLHQRVCWRLVEQVPDRAMEAVLTGLVEAALGPEVLSRLLGNLVVKNKKAQFVMTQKLLFLQSRLTTPMLQSLLGHLAMDSQRRPLLLQVLKELLETWGSSSAIRHTPLPQQRHVSKAVLICLAQLGEPELRDSRDELLASMMAGVKCRLDSSLPPVRRLGMIVAEVVSARIHPEGPPLKFQYEEDELSLELLALASPQPAGDGASEAGTSLVPATAEPPAETPAEIVDGGVPQAQLAGSDSDLDSDDEFVPYDMSGDRELKSSKAPAYVRDCVEALTTSEDIERWEAALRALEGLVYRSPTATREVSVELAKVLLHLEEKTCVVGFAGLRQRALVAVTVTDPAPVADYLTSQFYALNYSLRQRMDILDVLTLAAQELSRPGCLGRTPQPGSPSPNTPCLPEAAVSQPGSAVASDWRVVVEERIRSKTQRLSKGGPRQGPAGSPSRFNSVAGHFFFPLLQRFDRPLVTFDLLGEDQLVLGRLAHTLGALMCLAVNTTVAVAMGKALLEFVWALRFHIDAYVRQGLLSAVSSVLLSLPAARLLEDLMDELLEARSWLADVAEKDPDEDCRTLALRALLLLQRLKNRLLPPASP
B7: PHGDH (protein)
chain: AFANLRKVLISDSLDPCCRKILQDGGLQVVEKQNLSKEELIAELQDCEGLIVRSATKVTADVINAAEKLQVVGRAGTGVDNVDLEAATRKGILVMNTPNGNSLSAAELTCGMIMCLARQIPQATASMKDGKWERKKFMGTELNGKTLGILGLGRIGREVATRMQSFGMKTIGYDPIISPEVSASFGVQQLPLEEIWPLCDFITVHTPLLPSTTGLLNDNTFAQCKKGVRVVNCARGGIVDEGALLRALQSGQCAGAALDVFTEEPPRDRALVDHENVISCPHLGASTKEAQSRCGEEIAVQFVDMVKGKSLTGVVNAQALTSAFSPHTKPWIGLAEALGTLMRAWAGSPKGTIQVITQGTSLKNAGNCLSPAVIVGLLKEASKQADVNLVNAKLLVKEAGLNVTTSHSPAAPGEQGFGECLLAVALAGAPYQAVGLVQGTTPVLQGLNGAVFRPEVPLRRDLPLLLFRTQTSDPAMLPTMIGLLAEAGVRLLSYQTSLVSDGETWHVMGISSLLPSLEAWKQHVTEAFQFHF

Target: T1, B3GNT2
Test: Co-IP of FLAG-tagged B3GNT2 followed by mass spectrometry
Assay type: cell-based
Design: C-term IgG / C-term flag: unit not given here
Conditions: Co-IP followed by mass spectrometry of B3GNT2; C-term tag, FLAG pull-down
Method in brief: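 Co-purifying proteins were identified by fractionated nano-LC–MS/MS on an Orbitrap Elite, run data-dependent. Beforehand, lysates in 1% Triton X-100/HEPES buffer were incubated overnight at 4° C with anti-FLAG or […] and pulled down on Protein A/G magnetic beads for 4 h. Duplicate biological replicates.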

Row | C-term flag | Molecule
1 | 8 | B1
2 | 5 | B2
3 | 3 | B3
4 | 3 | B4
5 | 4 | B5
6 | 3 | B6

Same assay, conditions: Co-IP followed by mass spectrometry of B3GNT2; C-term tag, IgG pull-down

Row | C-term IgG | Molecule
7 | 5 | B1
8 | 3 | B2
9 | 0 | B3
10 | 0 | B4
11 | 2 | B5
12 | 0 | B6

Same assay, conditions: Co-IP followed by mass spectrometry of B3GNT2; N-term tag, FLAG pull-down

Row | N-term FLAG | Molecule
13 | 6 | B1
14 | 3 | B2
15 | 2 | B3
16 | 2 | B4
17 | 5 | B5
18 | 2 | B6

Same assay, conditions: Co-IP followed by mass spectrometry of B3GNT2; N-term tag, IgG pull-down

Row | N-term IgG | Molecule
19 | 5 | B1
20 | 2 | B2
21 | 0 | B3
22 | 0 | B4
23 | 4 | B5
24 | 0 | B6

Same assay, conditions: Co-IP with FLAG antibody, C-terminally FLAG-tagged B3GNT2; mass spectrometry count, unit not given

Row | C-term flag | Molecule
25 | 7 | B7

Same assay, conditions: Co-IP with FLAG antibody, N-terminally FLAG-tagged B3GNT2; mass spectrometry count, unit not given

Row | N-term FLAG | Molecule
26 | 29 | B7

Same assay, conditions: Co-IP with IgG control antibody, C-terminally FLAG-tagged B3GNT2; mass spectrometry count, unit not given

Row | C-term IgG | Molecule
27 | 0 | B7

Same assay, conditions: Co-IP with IgG control antibody, N-terminally FLAG-tagged B3GNT2; mass spectrometry count, unit not given

Row | N-term IgG | Molecule
28 | 0 | B7
